Results from article PMC7390872.

Molecular target: recombinant thioredoxin (rTRX) [thioredoxin: P0AA25]
Assay: SPR; BIAcore T200; anti-His-tag antibody amine-coupled to a CM5 chip captures the His-tagged recombinant protein (0.1 mg/mL, about 200 RU); ligands (0.1 mg/mL) injected at 10 μL/min for 180 s; HBS-EP pH 7.5 (10 mM HEPES, 150 mM NaCl, 3 mM EDTA, 0.005% P20); relative reaction value, RUs >10 considered positive

recombinant thioredoxin (rTRX) [thioredoxin: P0AA25], sequence (P0AA25 whole entry): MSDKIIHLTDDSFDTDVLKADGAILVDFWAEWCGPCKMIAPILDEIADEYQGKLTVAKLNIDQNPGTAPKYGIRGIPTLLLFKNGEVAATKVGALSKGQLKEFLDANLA

response units (relative reaction value): < 10 RUs
Substance: laminin protein
